According to the supplement of paper PMC10724198:
± gives the standard deviation of the averaged measurements.

test system: Saccharomyces cerevisiae; assay: protein stability index of tFT-peptide fusion (C-terminal peptide) (PSI (0-1 scale)); higher = more stable (slower turnover); conditions: genetic background: wild type; temperature: 30 C
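Further: PSI is a weighted mean of sequencing reads over stability bins, variants kept only with over 10 reads, mCherry proximal and sfGFP distal, peptide attached via GGGS linker.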

Sequence	protein stability index
LSYRYPLYPILL	0.647 ± 0.018
LTACLRRTNTLM	0.503 ± 0.0041
LTASRLAGSGGE	0.69 ± 0.023
LTATNEARNIDH	0.659 ± 0.027
LTCYFSASNVLW	0.615 ± 0.046
LTDCIHERKGTE	0.743 ± 0.017
LTFGAPGACGLG	0.719 ± 0.024
LTGAQPTDPNMR	0.697 ± 0.071
LTGFYFFFDMTL	0.6366 ± 0.0032
LTLCRSPMSLRA	0.633 ± 0.12
LTPAPSSCLRSP	0.6857 ± 0.005
LTPLPPPPLRPP	0.599 ± 0.024
LTRRCPVGAWGN	0.692 ± 0.012
LTSGTVLVLSSL	0.683 ± 0.03
LTSPPPPPARVP	0.739 ± 0.11
LTSRPIPFLLRG	0.666 ± 0.014
LTSWAKRMGLGD	0.731 ± 0.1
LTWCGVSEAVIA	0.50795 ± 0.00033
LTYVSGIASVYG	0.532 ± 0.019
LVALTSVLSALF	0.698 ± 0.069
LVCGIDSLVRLV	0.57 ± 0.029
LVCGIGFIYFGF	0.492 ± 0.014
LVCLWQGSSVLI	0.671 ± 0.023

Sequence	protein stability index
LVCRRYSGDSSS	0.637 ± 0.023
LVDSSLTESLDV	0.645 ± 0.034
LVFCSLLSLFFS	0.557 ± 0.012
LVGSLGVYGVYV	0.665 ± 0.043
LVICPRVLRDFR	0.663 ± 0.05
LVILLLQLLSGT	0.51758 ± 0.00046
LVLFFRSYCLVV	0.5142 ± 0.0036
LVLKLWNKFFVD	0.65438 ± 0.00026
LVLPASSPCLFF	0.647 ± 0.034
LVLSRSGPFSHL	0.7 ± 0.073
LVLTLIDGSWNV	0.7011 ± 0.0056
LVLVSFWWSGPM	0.526 ± 0.031
LVPPPPPPSPPP	0.6457 ± 0.004
LVRASDPLSVTI	0.689 ± 0.073
LVRILSRSVVRT	0.697 ± 0.078
LVRLNSHRYTSV	0.613 ± 0.035
LVSCPPPPAPPP	0.659 ± 0.06
LVSPSSPLLPPP	0.685 ± 0.082
LVSRLAGAVLGR	0.632 ± 0.014
LVSVSVGFFLLL	0.499 ± 0.047
LVSWFWPFSFFA	0.661 ± 0.098
LVVEYFLCGSIS	0.532 ± 0.035
LVVWSSIVSGGG	0.675 ± 0.05

Sequence	protein stability index
LVYLQVFSSLLS	0.543 ± 0.014
LWGGVVGRVRGV	0.635 ± 0.037
LWGVVVGELGSC	0.723 ± 0.074
LWISVDEGQLCH	0.617 ± 0.042
LWPVSMTSSFFF	0.661 ± 0.048
LWRFMLGQGFEG	0.726 ± 0.022
LWVGVGRWLRGR	0.744 ± 0.014
LYAHVPSYRVSA	0.593 ± 0.058
LYNVTRDTWVLS	0.66 ± 0.057
LYPSFSHTPPPT	0.69 ± 0.056
LYSPLLCRLPFP	0.666 ± 0.045
LYVLHCSLIEEV	0.543 ± 0.051
MAHAYTRKDTRK	0.64 ± 0.052
MAICRVLSQVFL	0.686 ± 0.12
MAIRSPACRLRF	0.674 ± 0.049
MAWGVGTRRLGW	0.679 ± 0.044
MCDSFFGHSVRN	0.699 ± 0.043
MCLWMGFWFACF	0.537 ± 0.024
MENAMHQLNRNT	0.679 ± 0.022
MFDSHQWVCIKD	0.785 ± 0.1
MGGKGRGGRREI	0.666 ± 0.041
MGSQATPQRENS	0.659 ± 0.12
MGVGINSGDKLC	0.667 ± 0.11

Sequence	protein stability index
MGVGRFEWVVGG	0.665 ± 0.053
MGVHKQQMRGQR	0.682 ± 0.036
MGYPGFGRVPYV	0.723 ± 0.053
MHLRFYFLKTDV	0.597 ± 0.02
MKIKIEINKNKT	0.654 ± 0.032
MKKVQENIKGKH	0.717 ± 0.11
MKRMIKREIKIK	0.679 ± 0.089
MKTSIQHNRNPG	0.659 ± 0.0096
MLFLGPRLVVPA	0.565 ± 0.0097
MLRRSGEGVRLE	0.7218 ± 0.0045
MLYNQDIGQELL	0.652 ± 0.058
MMFRRLPTRGRF	0.6951 ± 0.0021
MNQELRNCKGNG	0.6259 ± 0.0034
MNRHLHFLSPET	0.648 ± 0.031
MQGCKAYSVGRQ	0.701 ± 0.061
MQLTRKEEKSQE	0.658 ± 0.023
MSEFDVPLPIYM	0.716 ± 0.063
MTRGSAPELWLL	0.655 ± 0.029
MVCSFVSLLGRF	0.69 ± 0.01
MVGGVLLSGCRF	0.6455 ± 0.0021
MVVLSGVLPVGD	0.642 ± 0.0077
MWLGSGCWVNGL	0.735 ± 0.048
MWQSRSAYFGSN	0.692 ± 0.075

Sequence	protein stability index
MWYCGVSGPGNG	0.6859 ± 0.0013
MYHGKKTAGINV	0.7 ± 0.037
MYRLSFAAGRGS	0.688 ± 0.016
NAFTMWVSRQAR	0.77 ± 0.02
NALFGWMRGCLS	0.724 ± 0.034
NARMPPHIVAGI	0.64 ± 0.034
NASVRMFIRTGC	0.6971 ± 0.00097
NCMFKSNKQGGA	0.6749 ± 0.0021
NCPIQEPVSAIY	0.661 ± 0.007
NCTHKKKTLTPN	0.726 ± 0.012
NDGSDYRFLSLK	0.706 ± 0.011
NECKIKKDNTKK	0.672 ± 0.06
NEEVAKKKKIRV	0.667 ± 0.061
NEINKPTRSQTA	0.644 ± 0.04
NENFILCPRVNL	0.701 ± 0.035
NESSASKEKSNI	0.69 ± 0.038
NFQLIKKHSKNN	0.63552 ± 0.00029
NGGCCLVFRIEP	0.643 ± 0.029
NGQSELHDHYME	0.651 ± 0.013
NGSSFSRTVRFM	0.624 ± 0.038
NGVGGMHGINIM	0.696 ± 0.076
NHFQYHSPVASE	0.688 ± 0.028
NHLANHAGCQKT	0.667 ± 0.028

Sequence	protein stability index
NHSTGLYAARLR	0.725 ± 0.041
NHVAPNSPSPQD	0.731 ± 0.027
NIIQTYITLNEL	0.74 ± 0.12
NIMNKIFQKQKE	0.642 ± 0.092
NIPAAGCPRATA	0.711 ± 0.033
NKEPKRKHKNNK	0.675 ± 0.017
NKIKTSRKKNNQ	0.723 ± 0.017
NKILIKKEQEEI	0.64356 ± 0.00045
NKKKKTAIPPKR	0.672 ± 0.021
NKKKPKRTGKTQ	0.674 ± 0.025
NKKKREYKGMNF	0.686 ± 0.044
NKKVRSKRKEMN	0.637 ± 0.093
NKLKEKNEKYKV	0.659 ± 0.025
NKNKDNNEIVKK	0.677 ± 0.068
NKNVGLKKSEKS	0.711 ± 0.019
NKQNKKKKTNKK	0.6792 ± 0.0036
NKQTKTQPTKKE	0.725 ± 0.015
NKYTKSKKNNKE	0.761 ± 0.14
NLKCRMSLKTLG	0.705 ± 0.0018
NMCHVYTIIPSK	0.632 ± 0.024
NMPIGVRLLLGR	0.652 ± 0.011
NNMNRKKGKKKT	0.7027 ± 0.0018
NNRKKKGRRRQE	0.674 ± 0.042

Sequence	protein stability index
NPAVASPPPSSS	0.737 ± 0.036
NPHLTLPVHPPH	0.709 ± 0.026
NPHRRPPRAPWP	0.689 ± 0.039
NRDGWWVSNGCR	0.796 ± 0.07
NRGYRKDDKGMR	0.689 ± 0.042
NRHQVSKTEIKL	0.72 ± 0.016
NRMLRAQRKNRT	0.689 ± 0.033
NRNVLKTRKKST	0.593 ± 0.018
NSDEYKVYGEKL	0.661 ± 0.015
NSEKKKKRKEKK	0.731 ± 0.024
NSKTKNCYKTGS	0.705 ± 0.061
NSPPPPRLRSSL	0.6937 ± 0.0018
NSQAIKSTARQK	0.707 ± 0.00054
NSRLLPWRHELR	0.784 ± 0.1
NSWCRFLRRCLV	0.609 ± 0.074
NSWGRRAGMRGG	0.731 ± 0.1
NTIPRVTPDKSQ	0.642 ± 0.093
NTLTSCRPVASK	0.704 ± 0.037
NTQSRNKSYTER	0.671 ± 0.0091
NTRGRGQCCQGN	0.576 ± 0.053
NTSLLMAWPIPP	0.556 ± 0.032
NVCSSFLAELVN	0.6051 ± 0.0029
